Earlier results on 1 substance are cited in article PMC8036930.

The target of this data set is albumin (Rattus norvegicus) (UniProt P02770).
Chain of UniProt P02770 (P02770 25-608): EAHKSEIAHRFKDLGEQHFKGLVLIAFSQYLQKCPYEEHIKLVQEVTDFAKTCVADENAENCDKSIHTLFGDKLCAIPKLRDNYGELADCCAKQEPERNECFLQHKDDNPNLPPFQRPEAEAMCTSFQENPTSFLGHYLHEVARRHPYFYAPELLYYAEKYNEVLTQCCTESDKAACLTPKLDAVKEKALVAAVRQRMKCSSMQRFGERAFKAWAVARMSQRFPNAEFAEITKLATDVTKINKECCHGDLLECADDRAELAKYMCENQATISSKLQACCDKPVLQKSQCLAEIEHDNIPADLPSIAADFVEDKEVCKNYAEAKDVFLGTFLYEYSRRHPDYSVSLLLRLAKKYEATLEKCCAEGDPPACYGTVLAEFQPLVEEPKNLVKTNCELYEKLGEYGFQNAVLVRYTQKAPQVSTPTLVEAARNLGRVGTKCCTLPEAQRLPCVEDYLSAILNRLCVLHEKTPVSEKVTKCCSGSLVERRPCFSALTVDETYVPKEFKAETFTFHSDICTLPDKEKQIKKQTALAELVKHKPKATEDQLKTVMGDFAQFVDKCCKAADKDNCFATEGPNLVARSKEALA

One may read the Kd as the equilibrium constant for the complex coming apart. Take cubilin (from UniProt O70244): the Kd is 630 nM.
